Assay results reported in US20200046811.

Molecular target: T1, Recombinant Human FGF23 (Fibroblast Growth Factor 23), Q9GZV9
T1 chain: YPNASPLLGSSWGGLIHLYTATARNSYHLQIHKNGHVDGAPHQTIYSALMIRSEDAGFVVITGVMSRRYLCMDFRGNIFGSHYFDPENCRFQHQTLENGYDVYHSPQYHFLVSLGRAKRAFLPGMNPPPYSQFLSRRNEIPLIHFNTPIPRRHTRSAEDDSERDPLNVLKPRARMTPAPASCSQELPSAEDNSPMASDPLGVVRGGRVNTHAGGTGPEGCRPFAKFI

B1: Recombinant human t-PA (tissue plasminogen activator) (protein)
chain: SYQVICRDEKTQMIYQQHQSWLRPVLRSNRVEYCWCNSGRAQCHSVPVKSCSEPRCFNGGTCQQALYFSDFVCQCPEGFAGKCCEIDTRATCYEDQGISYRGTWSTAESGAECTNWNSSALAQKPYSGRRPDAIRLGLGNHNYCRNPDRDSKPWCYVFKAGKYSSEFCSTPACSEGNSDCYFGNGSAYRGTHSLTESGASCLPWNSMILIGKVYTAQNPSAQALGLGKHNYCRNPDGDAKPWCHVLKNRRLTWEYCDVPSCSTCGLRQYSQPQFRIKGGLFADIASHPWQAAIFAKHRRSPGERFLCGGILISSCWILSAAHCFQERFPPHHLTVILGRTYRVVPGEEEQKFEVEKYIVHKEFDDDTYDNDIALLQLKSDSSRCAQESSVVRTVCLPPADLQLPDWTECELSGYGKHEALSPFYSERLKEAHVRLYPSSRCTSQHLLNRTVTDNMLCAGDTRSGGPQANLHDACQGDSGGPLVCLNDGRMTLVGIISWGLGCGQKDVPGVYTKVTNYLDWIRDNMRP
- in vitro proteolysis of FGF23, silver stained SDS-PAGE gel: smaller fragments are generated on a silver stained SDS-PAGE gel indicating proteolytic cleavage
